Measured values reported in the nanobody polyreactivity screen of Harvey et al. (2022).

Test: yeast display, Sf9 membrane polyspecificity reagent, FACS + sequencing; frameworks hold sequencing errors
Method in brief: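 In a synthetic yeast display library (Saccharomyces cerevisiae BJ5465), nanobody expression was induced with galactose for 36–48 hours. FACS gates were set low and high (top ~1%) using anti-HA fluorescence for expression and streptavidin fluorescence for binding of the Sf9 membrane reagent. Each polyreactivity label is drawn from the gate of origin.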

Sequence	polyreactivity (PSR sort gate)
QVQIVESGGGLVQAGGSLRLSCAASGSIFKIYEMGWYRLAPGKEREMVASMTCSGGSTYYADSVKGRFTISRDNAKNTVYLQRNSLKPEDTAGYYCAAAVLGSSKSEVDPDRPEYYYWGQGTQVTVSS	low polyreactivity
QVQLVESGGGLVQAGGSLRLSCAASGYTIYYYAMGWYRQAPGKERELVAVITSRGTRTYYADSVQGRFTISRDNAKNTVYLQMNSLKPEDTAVYYCNKARGVAYDWGQGTQVTVSS	high polyreactivity
QVQLVESGGGLVQAGGSLRLSCAASGIIFKSYTMGWYRQAPGKERELVAAINSSGDRTYYADSVKGRFTISRDNAKNTVYLQMNSLKPEDTAVDYCAAAPVKKSRFRYDYWGQGTQVTVSS	high polyreactivity
QVQLVESGGGLVQAGGSLRLSCAASGSTFFCYAMGWYRQAPGKERELVAAISRSGDRTYYADSVKGRFTISRDNAKNTVYLQMKSLKPEDTAVYYCAAKGFKPSDWGQGTQVTVSS	high polyreactivity
QDQLVESGGGLVQAGGSLRLSCAASGFTFRHYVMGGSRQAPGKERELVAAIDVRGGSTYYADSVKGRFTISRDNAKNTVYLQMNSLKPEDTAVYYCAKRLIPRLPIMQKMDYWGQGTQVTVSS	low polyreactivity
QLQLVESGGGLVQAGGSLRLSSAASGFIFDGNAMGGYRQAPGKERELVAAISWDGGTYYADSVKGRFTISRDNAKNTVYLQMNSLKPEDTAVDYCPAEQTQLYSFGWDEYWGQGTQVTVSS	low polyreactivity
QVQLVESGGGLVQAGGSLRLSCAASGFTFDNYGMGWYRQAPGKERDLVAAISTSGGSTYYADSVKGRFTISRDNEKNTVYFQMNSLKPEDTADYYCNVDFYEYSSVSYDYWGQGTQVTVSS	high polyreactivity
QVQLVESGGGLVQAGGSLRLSCAASGSTFFYNAMGWYIQAPGKERELVAAITVTGTSTYYADSVKGRFTISRDNAKNTVYLQMNSLKPEDTGVYYCNTSLKRRRLRFNYWGQGTQVTVSS	low polyreactivity
QVQLVESGGGLVQAGGSLRLSCAASGRIFYPYAMGWYRQAPGTERELVAAISYSGGSTFYADSVKGRFTISRDNAKNTVYFQMNSLKPEDTAVYFCNKVWFARYWYRDFDYWGQGTQVTVSS	high polyreactivity
QVQLVESGGGLVQAGGSLRLSCAASGRIFTRYAMGWYRQAPGKERELVAVITRSGGSTYYADSVKGRFTLSRDNAKNTVYLQMNSLKPEDTAVYYCAAKYYGEMYYWGQGTQVTVSS	low polyreactivity
QVQLVESGGGLVQAGGSLRLSCAASGSTIVIYTMGWYRQAPGKERELVAAISQSGGRTYYADSVKGRFTISRDNSKNTVYLQMNSLKPEDTAVYYCAATWGKHYGYWGQGTQVTVSS	high polyreactivity
QVQLVESGGGLVQAGGSLRLSCAASGSIFPDYAMGWYRQAPGKERELVAADSVKGRFTISRDNAKNTVYLQMNSLKPEDTAVYYCNKDYIIRRGPIVYYGFDYWGQGNQVTVSS	low polyreactivity
QVHLVESGGGLVQAGGSLRLSCADSGSIFRYYAMGWYRQAPGKEREMFARISWSGVSTYYADSVKGRFTISRDNAKNTVYLQMNSLKTEDTADYYCAGVDFRGYRYDLDYWGQGTQVTVSS	high polyreactivity
QVQLVESGGGLVQAGGSLRLSCAASGSIFQGYAMGWYRQAPGKERELVAAITASGGSTYYADSVKGRFTISRDNAMNTVYLQMNSLKPEDTAVYYCAAVRKSVGVKYDFWGQGTQVTVSS	high polyreactivity
QVQLVESGGGLDQAGGSLRLSCAASGLTFYKYAMGWYRQAPRKERELVASISRTGGSTYYADSVKGRFTISRDNANNTVYLQMNSLKPEDTAFYYCAARRGYYYGRVGYWGQGTQVTVSS	high polyreactivity
QVQLVESGGGLVQAGGSLRLSCAASGLTFTYYAMGWYRQAPGKERELVAAITGGARTYYADSVKGRFTISRDNAKNTVYLQMNSLKPEDTAVYYCATQGAQKRYKYNYWGQGTQVTVSS	high polyreactivity

Sequence	polyreactivity (PSR sort gate)
QVQLVESGGGLVQAGGRLRLSCAASGSIFEGYVMGWYRQAPGKERELVAAITTGGGSTYYADSVKGRFTISRDNAKNTVYLQMNSLKPEDTAVYYCAKDGGRWGQGTQVTVSS	low polyreactivity
QVHLVESGGGLVQAGGSLRLSCPASGRIFRVYAMGWYRQEPGKERELVAAISYSGGRTFYADSVKGRFTISRDNAKNTVYFQMNSLKPEDTAVYYGAAKSYYTQALPPFDYWGQGTQVTVSS	low polyreactivity
QVHLVESVGGLVQAGGSLRLSCAASGSIFYYNAMGWYRQAPGKERELVAAISSGGSTNYADSVKGRFTISRDNAKNTVYLQMNSLKPEDTAVYYCATGWSWYHPDYDYWGQGTQVTVSS	low polyreactivity
QVQLVESGGGLVQAGGSLRLSCAASGSIFGGYAMGWYRQAPGKERELVAAISFSGGSTYYADSVKGRFTISRDNAKNTVYSQMNSLKPEDTAVYYCAADPYYSYLFDYWGQGTQVTVSS	low polyreactivity
QVQLQESGGLEQAGVSLRLSCAACGNIFYDTYICWYRQGKERELVASIDHAGSTNYADSVIGRFTISRDNAKNTSYLQRNSLKPDDTAVYYCNAEYTKTGALLIPYTYYYAEDYWGQGTQVTVSS	low polyreactivity
QVQLVESGGGLVQAGGSLRLSCAASGSTFRYYVMGWYRQEPGKEREFVAAISAGGGRTYYADSVKGRFTISRDNSKNTVYLQMNSLKPEDTAVYYCAATKGNILRRSRYDYWGQGTQVTVSS	high polyreactivity
QVQLVESGGGLGQAGGSLRLSCAASGRIFFGNARGWYRQAPGKEREFVAAISLTGVTTSYADSVKGRFTISRDNAKNTVYLQMNSLKPEDTAVYYCARDYSYYTHAYDYWGQGTQVTVSS	low polyreactivity
QVQLVESGGGLVQAGGSLRLSCAASGFIFANYAMGWYRQAPGKERELVAAISTSGSSTYYADSVKGRFTISRDNAKNTVYLQMNSLKPEDTAVYYCNTYLTIWGYFYGYDYWGQGTQVTVSS	high polyreactivity
QVQLVESGGGLVKAGGRLRLSSAASGSIFASYSIGWYRQAPWKERELVAAITVRGGRTYYADSVKGRFTISRDNAKNTVYLQMNSLKPEDTAVYYCAAVGKNRSWYDYWGQGTQVTVSS	high polyreactivity
QVQLVESGGGLVQAGGSLRLSCAASGSIFYLYAMGWYRQAPGKERELVADITITGGSTYYADSVKGRFTISRDNAKNTVYLQMNSLKPEDTAVYYCAADEFWFTYRYDYWGQGTQVTVSS	high polyreactivity
QVQLVESGGGLVQAGGSLRLSCAASGIIFIKYAMGWYRQAPGKERELVAAITSGGSTHYADSVKGRFTISRDNAKNTVYLQMNSLKPEDTAVYYCNADILRHVAYFKDRYQAGSYWGQGTQVTVSS	low polyreactivity
QVQLVESGGGLVQAGGSLRLSCAASGLTFPVYAMGWYRQAPGKERELVAAISKSGGNTYYADSVKGRFTISRDNAKNTVYLQMNSLKPEDTAVYYCAAGYLSGNYARYGYWGQGTQVTVSS	high polyreactivity
QVQLVESGGGLVQAGGSLSLSCAASGSTFAFYAMGCYRQAPGKERDLVAASTRSAGSTYYADSVKGRFTISRDNATTTVYLPMNSLKREDTAVYYCAKYVSYSRTLYDYWGQGTQVTVSS	low polyreactivity
QVQLVESGGGLVQAGVSLRLSCAASGFIFFPYVMGWYRQAPGKERELVARNTSGGGSTYYADSVKGRFTISRDNAKNTVYIQMNSLKPEDTAGYYCKARRIWYQSTFNYWGQGTQVTVSS	high polyreactivity
QVQLVESGGGLVQAGGSLRLSCAQSGFTKSTYTMGWYRQAPGKESELVAAIRRSGDSTYYGDSVKGRFTISRDHAKNTVYLQMKRLKPEDTAVYYSNAVRYRFERYDYWGQGTQVTVSS	high polyreactivity
QVQLVESGGGLVQAGGSLRLSCAASGRTFEHYGMGWYRQAPGKEREFVADISRIGGSTYADSVKGRFTISRDNAKNTVYLQKNSLKPEDSAVYYCNKARYQLGSGYNYWGQGTQVTVSS	low polyreactivity
